From the supplement of paper PMC12855868

B1: library; numbered along this chain (parent)
chain: MAAAGGARLLRAASAVLGGPAGRWLHHAGSRAGSSGLLRNRGPGGSAEASRSLSVSARARSSSEDKITVHFINRDGETLTTKGKVGDSLLDVVVENNLDIDGFGACEGTLACSTCHLIFEDHIYEKLDAITDEENDMLDLAYGLTDRSRLGCQICLTKSMDNMTVRVPETVADARQSIDVGKTS

Variants of: B1
Experiment: scaled log2 fold change in cell abundance, elesclomol vs control (0 = silent mean, 1 = nonsense mean) (scaled log2 ratio); higher = higher viability under elesclomol (loss of FDX1 cuproptosis function)
Details: glucose 10 mM
[1] = with ABC1 FDX1 KO, elesclomol 5 nM, 14 days
[2] = with HEK293T FDX1 KO, elesclomol 40 nM, 11 days
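Also: variant abundance is its share of total variant reads in each endpoint sample, from next-generation sequencing of the integrated ORF PCR-amplified out of genomic DNA.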

Row | Variant | scaled log2 fold change [1] | scaled log2 fold change [2]
1 | A129E | -0.447 | -0.333
2 | A129D | -0.23 | 0.439
3 | A129V | 0.217 | 0.196
4 | A129L | 0.598 | 1.27
5 | A129I | 0.162 | -0.508
6 | A129S | 0.0531 | -0.075
7 | A129Y | -0.538 | 
8 | A129R | 0.464 | -0.0758
9 | L127D | 0.521 | -0.11
10 | L127T | 0.249 | -0.0113
11 | L127N | 0.0507 | 1.27
12 | L127H | 0.038 | 0.312
13 | L127F | -0.388 | -0.405
14 | L127K | 0.682 | 0.253
15 | L127Q | 0.446 | 0.00947
16 | L127G | 0.701 | -0.0303
17 | L127P | 0.814 | 1.12
18 | L127M | 0.152 | 0.302
19 | L127W | 0.322 | 0.0443
20 | L127S | 0.442 | 0.345
21 | L127R | 0.785 | 0.151
22 | L127E | 0.573 | 0.536
23 | L127A | 0.297 | 1.31
24 | L127I | 0.0723 | 0.119

Row | Variant | scaled log2 fold change [1] | scaled log2 fold change [2]
25 | L127Y | 0.24 | -0.426
26 | L127V | 0.0908 | 0.603
27 | I130R | -0.234 | 0.125
28 | I130N | -0.0924 | 0.234
29 | I130T | -0.0905 | -0.0285
30 | I130G | -0.279 | -0.433
31 | I130L | -0.083 | -0.116
32 | I130C | -0.188 | 1.38
33 | I130W | -0.285 | -0.314
34 | I130P | -0.462 | -0.467
35 | I130A | 0.429 | 
36 | I130S | 0.236 | 0.715
37 | I130V | 0.000565 | -0.448
38 | I130K | -0.203 | 0.0187
39 | I130Y | 0.33 | 0.102
40 | I130Q | 0.0588 | -0.458
41 | I130D | 0.59 | 0.0795
42 | I130F | 0.211 | -0.285
43 | I130H | 0.0428 | 0.239
44 | I130M | 0.336 | -0.481
45 | I130E | -0.051 | -0.419
46 | L138T | -0.0362 | 0.287
47 | L138S | 0.467 | 0.0871
48 | L138N | 0.767 | 0.557

Row | Variant | scaled log2 fold change [1] | scaled log2 fold change [2]
49 | L138K | 0.41 | -0.306
50 | L138E | 0.986 | 0.639
51 | L138C | -0.108 | 0.251
52 | L138G | 0.706 | 0.389
53 | L138H | 0.199 | 0.223
54 | L138M | 0.188 | 0.00846
55 | L138Q | -0.00504 | 0.34
56 | L138P | 1.15 | 0.887
57 | L138I | 0.0896 | 0.0458
58 | L138D | 1.11 | 1.04
59 | L138A | 0.519 | -0.22
60 | L138R | -0.0868 | -0.131
61 | L138F | 0.0535 | -0.0648
62 | D128I | -0.0983 | -0.34
63 | D128M | -0.149 | -0.00382
64 | D128E | 0.267 | 0.301
65 | D128F | -0.376 | 0.338
66 | D128W | -0.0394 | -0.406
67 | D128Q | -0.253 | 
68 | D128T | -0.378 | 
69 | D128S | -0.519 | 1.1
70 | D128N | -0.106 | -0.13
71 | D128A | -0.474 | -0.104
72 | D128C | 0.113 | 0.174

Row | Variant | scaled log2 fold change [1] | scaled log2 fold change [2]
73 | D128K | -0.0506 | -0.0961
74 | D128V | 0.419 | -0.465
75 | D128H | 0.277 | 
76 | D128Y | -0.45 | 0.0308
77 | D128G | 0.0426 | 
78 | D128P | 0.196 | 
79 | D128L | 0.397 | -0.761
80 | D128R | -1.26 | -0.293
81 | D136P | 0.922 | 1.19
82 | D136F | 0.493 | -0.85
83 | D136M | 0.136 | -0.421
84 | D136Y | 0.0478 | -0.0361
85 | D136A | 0.243 | -0.0274
86 | D136S | 0.133 | 0.338
87 | D136H | 0.556 | 0.766
88 | D136V | 0.459 | 0.696
89 | D136I | 0.422 | -0.019
90 | D136E | 0.196 | 0.183
91 | D136K | 0.913 | 0.124
92 | D136L | 0.751 | 0.113
93 | D136T | 0.611 | 0.431
94 | D136C | 0.0368 | 0.938
95 | D136G | 0.589 | 0.805
96 | D136N | 0.198 | -0.651

Row | Variant | scaled log2 fold change [1] | scaled log2 fold change [2]
97 | D136Q | 0.344 | 0.87
98 | D136R | 0.898 | 1.08
99 | D136W | 0.188 | 0.105
100 | M137Y | -0.108 | 1.02
101 | M137E | -0.366 | 0.879
102 | M137N | 0.119 | 
103 | M137S | -0.337 | -0.153
104 | M137T | 0.14 | -0.403
105 | M137G | -0.0982 | -0.171
106 | M137P | -0.0177 | -0.842
107 | M137R | -0.477 | -0.0264
108 | M137K | -0.121 | 1.33
109 | M137L | 0.182 | 1.39
110 | M137V | -0.0968 | -0.154
111 | M137F | -0.075 | -0.7
112 | M137Q | 0.0471 | -0.244
113 | M137C | -0.596 | -0.635
114 | M137I | 0.0941 | 0.499
115 | M137H | 0.073 | -0.384
116 | M137D | 0.813 | 0.152
117 | M137A | -0.189 | 0.285
118 | M137W | -0.244 | 1.1
